Measured values from PMC7496822 (Arthritis & Rheumatology (Hoboken, N.j.), 2020).

How the values were obtained:
Test in all cases: ELISA
[1] = molecular target: insulin from bovine pancreas (Bos taurus, UniProt P01317)
[2] = molecular target: actin from bovine muscle (Bos taurus, UniProt P68138)
[3] = molecular target: SSA/Ro60 (Homo sapiens (assumed), UniProt P10155)
[4] = molecular target: SSA/Ro52 (Homo sapiens (assumed), UniProt P19474)

Measured: binding result

insulin from bovine pancreas, sequence (P01317 whole entry, looked up): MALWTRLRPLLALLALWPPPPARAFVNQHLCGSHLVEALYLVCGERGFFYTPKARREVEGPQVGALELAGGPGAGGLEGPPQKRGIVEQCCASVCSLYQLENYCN
SSA/Ro60, sequence (P10155 whole entry): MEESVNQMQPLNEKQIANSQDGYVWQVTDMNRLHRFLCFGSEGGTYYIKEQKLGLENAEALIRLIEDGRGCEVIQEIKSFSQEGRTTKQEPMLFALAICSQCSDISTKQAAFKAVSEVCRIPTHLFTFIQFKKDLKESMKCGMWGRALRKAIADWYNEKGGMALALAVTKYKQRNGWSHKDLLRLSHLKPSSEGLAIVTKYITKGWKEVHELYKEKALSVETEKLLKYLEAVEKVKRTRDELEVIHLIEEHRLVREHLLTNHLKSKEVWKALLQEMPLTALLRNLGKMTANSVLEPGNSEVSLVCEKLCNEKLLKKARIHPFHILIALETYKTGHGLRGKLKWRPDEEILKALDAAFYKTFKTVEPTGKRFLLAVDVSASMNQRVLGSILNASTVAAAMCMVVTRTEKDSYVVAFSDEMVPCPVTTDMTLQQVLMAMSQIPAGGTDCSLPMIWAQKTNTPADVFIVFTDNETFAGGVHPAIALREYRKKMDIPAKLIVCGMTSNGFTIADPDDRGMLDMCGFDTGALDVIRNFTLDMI
SSA/Ro52, sequence (P19474 whole entry): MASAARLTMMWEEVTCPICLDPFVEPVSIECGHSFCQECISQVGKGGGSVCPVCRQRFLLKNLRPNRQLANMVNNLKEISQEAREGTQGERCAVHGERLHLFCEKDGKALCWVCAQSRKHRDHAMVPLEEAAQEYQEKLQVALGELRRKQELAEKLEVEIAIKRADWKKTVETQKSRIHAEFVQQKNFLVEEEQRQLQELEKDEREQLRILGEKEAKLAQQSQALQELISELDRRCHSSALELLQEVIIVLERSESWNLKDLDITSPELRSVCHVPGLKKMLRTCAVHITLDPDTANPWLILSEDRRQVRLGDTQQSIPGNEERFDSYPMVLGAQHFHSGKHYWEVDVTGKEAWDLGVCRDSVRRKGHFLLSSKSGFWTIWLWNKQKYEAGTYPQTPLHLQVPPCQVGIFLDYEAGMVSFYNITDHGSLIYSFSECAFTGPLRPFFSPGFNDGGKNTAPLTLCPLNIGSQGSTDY

B1: recombinant IgM of MALT lymphoma salivary gland sample M11 (antibody, V domains shown)
VH: QVQLVQSGAEVKKPGSSVKVSCRASGGTFSRYAISWVRQAPGQGLEWMGGIIPLFNTPNYAQKFQGRVTIIADESTSTAYMELSSLRSDDTAVYYCAREGIAAAVNPFDYWGQGTLVTVSS
VL: not shown
no binding (tested: up to 1 μg/ml IgM): all assays above

B2: recombinant IgM of MALT lymphoma salivary gland sample M22 (antibody, V domains shown)
VH: QVQLVQSGAEVKKSGSSVKVSCKASGGTFNNYAINWVRQAPGQGLEWMGGIIPIFGTPNYAQKFQGRVAITADKSTGTAYMELSSLRSEDTAVYYCARGSNDYGDNVPVQPYHYWGQGTLVTVSS
VL: EIVLTQSPGTLSLSPGERATLSCRASQSISSTYLAWYQQKPGQAPRLLIYGASSRATGIPDRFSGSGSGTDFTLTISRLEPEDFAMYYCQQFGSSPQTFGQGTKLEIK
no binding (tested: up to 1 μg/ml IgM): all assays above

B3: recombinant IgM of MALT lymphoma salivary gland sample M5 (antibody, V domains shown)
VH: EVQLVESGGGLVQPGGSLRLSCAASGFTFSSYWMSWVRQAPGKGLEWVANIKEDGGGKYYVDSVKGRFTISRDNAKNSLYLQMNSLRVEDTAVYYCARGDFWSGDYIDAFDIWGQGTLVTVSS
VL: EIVMTQSPATLSVSPGERATLSCRASQSVSSNLAWYQQKPGQPPRLLIYGASTRATGIPARFSGGGSGTEFTLTISSLQSEDFALYYCQHYNNWPPWTFGQGTKVEIK
no binding (tested: up to 1 μg/ml IgM): all assays above
